Our source for the Kd values is publication PMC12631878, “Single‐Cell Transcriptome Analysis Reveals That Hmga2 Regulates Neuroinflammation and Retinal Function by Modulating Müller Cell Autophagy Through PI3K/AKT Signaling Following MCAO‐Induced Retinal Ischemia” (Advanced Science, 2025).

This experiment addresses PI3K (protein used in biolayer interferometry) (UniProt P26450 1-724). Description: BLI; biolayer interferometry; format and conditions not told in the main text (Figure S4). (BLI is a label-free optical method that tracks binding on a fibre tip over time.)

In general, Kd refers to a measure of binding affinity in units of concentration. A high value points to lower affinity.

Chain of PI3K (protein used in biolayer interferometry) (P26450 2-724): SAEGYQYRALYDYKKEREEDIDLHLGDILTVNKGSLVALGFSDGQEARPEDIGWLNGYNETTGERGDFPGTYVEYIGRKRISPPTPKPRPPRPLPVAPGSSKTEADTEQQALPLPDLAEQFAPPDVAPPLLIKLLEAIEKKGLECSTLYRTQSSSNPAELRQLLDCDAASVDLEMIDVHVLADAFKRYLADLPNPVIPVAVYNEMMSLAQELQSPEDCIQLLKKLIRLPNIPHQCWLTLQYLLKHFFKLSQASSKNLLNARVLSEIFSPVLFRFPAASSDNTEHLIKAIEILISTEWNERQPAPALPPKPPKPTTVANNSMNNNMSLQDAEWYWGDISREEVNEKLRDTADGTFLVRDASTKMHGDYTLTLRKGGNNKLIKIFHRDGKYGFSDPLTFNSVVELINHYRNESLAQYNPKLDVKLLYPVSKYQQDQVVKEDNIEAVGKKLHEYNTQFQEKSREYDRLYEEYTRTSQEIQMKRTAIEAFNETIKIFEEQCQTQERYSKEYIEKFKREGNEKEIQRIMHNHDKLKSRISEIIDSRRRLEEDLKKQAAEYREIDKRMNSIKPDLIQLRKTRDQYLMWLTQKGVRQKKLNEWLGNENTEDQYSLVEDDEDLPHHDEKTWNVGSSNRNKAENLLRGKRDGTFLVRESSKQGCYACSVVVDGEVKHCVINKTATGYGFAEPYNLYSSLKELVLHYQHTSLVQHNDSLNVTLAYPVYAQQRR

B1: Hmga2 (protein used in biolayer interferometry) (natural protein, UniProt P52927 1-108, looked up)
chain: MSARGEGAGQPSTSAQGQPAAPVPQKRGRGRPRKQQQEPTCEPSPKRPRGRPKGSKNKSPSKAAQKKAETIGEKRPRGRPRKWPQQVVQKKPAQETEETSSQESAEED
notes: Hmga2 as used in the biolayer interferometry assay; The main text has no methods for the BLI experiment
On to B1, for which binding was put at a Kd of 12 nM.
